Experimental data as given in patent publication US20250197488A1 (MABWELL SHANGHAI BIOSCIENCE, published 2025).

What was measured:
[1] = molecular target: T1, human IL-11 (AAH12506.1, Pro22-Leu199) (human, UniProt P20809 22-199); test: BLI (Octet), antibody captured, human IL-11 in solution
T1 construct: The range Pro22-Leu199 counts on AAH12506.1; The Octet runs say only 'human IL-11'; also called hIL-11
T1 chain: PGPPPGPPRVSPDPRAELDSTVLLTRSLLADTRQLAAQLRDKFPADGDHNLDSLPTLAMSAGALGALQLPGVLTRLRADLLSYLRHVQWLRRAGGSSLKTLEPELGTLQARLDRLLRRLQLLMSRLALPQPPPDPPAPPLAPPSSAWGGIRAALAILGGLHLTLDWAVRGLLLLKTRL
Summary of the method: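 Antibodies, either purified or as hybridoma supernatant and diluted in HBS-EP+ buffer, were loaded onto anti-mouse IgG Fc (AMC) or anti-human Fc (AHC) biosensors in a Fortebio Octet QKe System for bio-layer interferometry. Human IL-11 in HBS-EP+ buffer was then passed over the sensors at 300 nM, with association and dissociation each lasting 300 seconds. After blank subtraction, the curves were fitted to a 1:1 Langmuir binding model to obtain kon, koff and Kd.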

[2] = molecular target: T2, IL-11 (Cat. 12225-HNCE, Sino Biological Inc.) (UniProt P20809 22-199, limits assumed); test: cell-based or functional assay
T2 sequence (looked up): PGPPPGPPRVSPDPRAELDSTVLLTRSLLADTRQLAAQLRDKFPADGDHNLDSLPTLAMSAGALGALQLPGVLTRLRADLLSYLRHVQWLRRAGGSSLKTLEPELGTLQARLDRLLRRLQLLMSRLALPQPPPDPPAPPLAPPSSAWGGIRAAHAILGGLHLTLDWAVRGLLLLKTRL

| Binder | Kd [1] [nM] | koff [1] [s⁻¹] | kon [1] [M⁻¹ s⁻¹] | Blocking activity (IC50), STAT3-luc reporter [2] [µg/mL] |
| --- | --- | --- | --- | --- |
| hz18A10-VHm1 + hz18A10-VL (antibody, V domains shown, Constant regions not restated for this antibody) VH: EVQLVQSGAEVKKPGASVKVSCKASGYTFTTYNMDWVRQAPGQGLEWMGTIYPGNGDTSYNQKFKGRVTMTRDTSTSTVYMELSSLRSEDTAVYYCARGDLHFLDYWGQGTLVTVSS VL: DIQMTQSPSSLSASVGDRVTITCKASQSVSNDVAWYQQKPGKAPKLLIYSASNRYTGVPSRFSGSGSGTDFTFTISSLQPEDIATYYCQHDYSSPYTFGQGTKLEIK | 2.17 | 0.00139 | 640000 | 10.9 |
| hz18A10-VHm2 + hz18A10-VLm9 (antibody, V domains shown, Constant regions not restated for this antibody) VH: EVQLVQSGAEVKKPGASVKVSCKASGYTFTTYNMDWVRQAPGQGLEWMGTIYPGNGDTSYNQKFKGRVTMTRDTSTSTVYMELSSLRSEDTAVYYCARGDLHYLDYWGQGTLVTVSS VL: DIQMTQSPSSLSASVGDRVTITCKASQSVYSDVAWYQQKPGKAPKLLIYSASNRYTGVPSRFSGSGSGTDFTFTISSLQPEDIATYYCQHDYSSPYTFGQGTKLEIK | 2.33 | 0.000941 | 404000 | 13.9 |
| hz18A10-VHm1 + hz18A10-VLm9 (antibody, V domains shown, Constant regions not restated for this antibody) VH: EVQLVQSGAEVKKPGASVKVSCKASGYTFTTYNMDWVRQAPGQGLEWMGTIYPGNGDTSYNQKFKGRVTMTRDTSTSTVYMELSSLRSEDTAVYYCARGDLHFLDYWGQGTLVTVSS VL: DIQMTQSPSSLSASVGDRVTITCKASQSVYSDVAWYQQKPGKAPKLLIYSASNRYTGVPSRFSGSGSGTDFTFTISSLQPEDIATYYCQHDYSSPYTFGQGTKLEIK | 2.01 | 0.000963 | 479000 | 11.1 |
| hz18A10-VHm1 + hz18A10-VLm7 (antibody, V domains shown, Constant regions not restated for this antibody) VH: EVQLVQSGAEVKKPGASVKVSCKASGYTFTTYNMDWVRQAPGQGLEWMGTIYPGNGDTSYNQKFKGRVTMTRDTSTSTVYMELSSLRSEDTAVYYCARGDLHFLDYWGQGTLVTVSS VL: DIQMTQSPSSLSASVGDRVTITCKASQSVFRDVAWYQQKPGKAPKLLIYSASNRYTGVPSRFSGSGSGTDFTFTISSLQPEDIATYYCQHDYSSPYTFGQGTKLEIK | 2.4 | 0.0013 | 544000 | 13.1 |
| hz18A10-VHm2 + hz18A10-VL (antibody, V domains shown, Constant regions not restated for this antibody) VH: EVQLVQSGAEVKKPGASVKVSCKASGYTFTTYNMDWVRQAPGQGLEWMGTIYPGNGDTSYNQKFKGRVTMTRDTSTSTVYMELSSLRSEDTAVYYCARGDLHYLDYWGQGTLVTVSS VL: DIQMTQSPSSLSASVGDRVTITCKASQSVSNDVAWYQQKPGKAPKLLIYSASNRYTGVPSRFSGSGSGTDFTFTISSLQPEDIATYYCQHDYSSPYTFGQGTKLEIK | 2.29 | 0.00158 | 692000 | 11.6 |
| hz18A10-VHm1 + hz18A10-VLm14 (antibody, V domains shown, Constant regions not restated for this antibody) VH: EVQLVQSGAEVKKPGASVKVSCKASGYTFTTYNMDWVRQAPGQGLEWMGTIYPGNGDTSYNQKFKGRVTMTRDTSTSTVYMELSSLRSEDTAVYYCARGDLHFLDYWGQGTLVTVSS VL: DIQMTQSPSSLSASVGDRVTITCKASQSVSNDVAWYQQKPGKAPKLLIYRASRRYTGVPSRFSGSGSGTDFTFTISSLQPEDIATYYCQHDYSSPYTFGQGTKLEIK | 1.03 | 0.000341 | 330000 | 9.68 |

The next lines start with the values.

| Kd [1] [nM] | koff [1] [s⁻¹] | kon [1] [M⁻¹ s⁻¹] | Blocking activity (IC50), STAT3-luc reporter [2] [µg/mL] | Binder |
| --- | --- | --- | --- | --- |
| 0.0959 | 9.7e-05 | 1.01e+06 | 0.248 | hz18A10-VHm3 + hz18A10-VLm9 (antibody, V domains shown, Constant regions not restated for this antibody) VH: EVQLVQSGAEVKKPGASVKVSCKASGYTFTTYDMDWVRQAPGQGLEWMGTIYPGNGDTSYNQKFKGRVTMTRDTSTSTVYMELSSLRSEDTAVYYCARGDLYALDYWGQGTLVTVSS VL: DIQMTQSPSSLSASVGDRVTITCKASQSVYSDVAWYQQKPGKAPKLLIYSASNRYTGVPSRFSGSGSGTDFTFTISSLQPEDIATYYCQHDYSSPYTFGQGTKLEIK |
| 0.825 | 0.000287 | 348000 | 7.4 | hz18A10-VHm1 + hz18A10-VLm11 (antibody, V domains shown, Constant regions not restated for this antibody) VH: EVQLVQSGAEVKKPGASVKVSCKASGYTFTTYNMDWVRQAPGQGLEWMGTIYPGNGDTSYNQKFKGRVTMTRDTSTSTVYMELSSLRSEDTAVYYCARGDLHFLDYWGQGTLVTVSS VL: DIQMTQSPSSLSASVGDRVTITCKASQSVSNDVAWYQQKPGKAPKLLIYRASNRYTGVPSRFSGSGSGTDFTFTISSLQPEDIATYYCQHDYSSPYTFGQGTKLEIK |
| 0.585 | 0.000265 | 453000 | 1.88 | hz18A10-VHm1 + hz18A10-VLm15 (antibody, V domains shown, Constant regions not restated for this antibody) VH: EVQLVQSGAEVKKPGASVKVSCKASGYTFTTYNMDWVRQAPGQGLEWMGTIYPGNGDTSYNQKFKGRVTMTRDTSTSTVYMELSSLRSEDTAVYYCARGDLHFLDYWGQGTLVTVSS VL: DIQMTQSPSSLSASVGDRVTITCKASQSVSNDVAWYQQKPGKAPKLLIYRASSRYTGVPSRFSGSGSGTDFTFTISSLQPEDIATYYCQHDYSSPYTFGQGTKLEIK |
| 1.01 | 0.000317 | 314000 | 9.46 | hz18A10-VHm2 + hz18A10-VLm11 (antibody, V domains shown, Constant regions not restated for this antibody) VH: EVQLVQSGAEVKKPGASVKVSCKASGYTFTTYNMDWVRQAPGQGLEWMGTIYPGNGDTSYNQKFKGRVTMTRDTSTSTVYMELSSLRSEDTAVYYCARGDLHYLDYWGQGTLVTVSS VL: DIQMTQSPSSLSASVGDRVTITCKASQSVSNDVAWYQQKPGKAPKLLIYRASNRYTGVPSRFSGSGSGTDFTFTISSLQPEDIATYYCQHDYSSPYTFGQGTKLEIK |
| 0.322 | 0.000266 | 826000 | 1.94 | hz18A10-VHm4 + hz18A10-VLm18 (antibody, V domains shown, Constant regions not restated for this antibody) VH: EVQLVQSGAEVKKPGASVKVSCKASGYTFTTYNIDWVRQAPGQGLEWMGTIYPGNGDTSYNQKFKGRVTMTRDTSTSTVYMELSSLRSEDTAVYYCARGDLYALDYWGQGTLVTVSS VL: DIQMTQSPSSLSASVGDRVTITCKASQSVYRDVAWYQQKPGKAPKLLIYRASSRYTGVPSRFSGSGSGTDFTFTISSLQPEDIATYYCQHDYSSPYTFGQGTKLEIK |
| 0.683 | 0.000652 | 954000 | 0.262 | hz18A10-VHm3 + hz18A10-VLm19 (antibody, V domains shown, Constant regions not restated for this antibody) VH: EVQLVQSGAEVKKPGASVKVSCKASGYTFTTYDMDWVRQAPGQGLEWMGTIYPGNGDTSYNQKFKGRVTMTRDTSTSTVYMELSSLRSEDTAVYYCARGDLYALDYWGQGTLVTVSS VL: DIQMTQSPSSLSASVGDRVTITCKASQSVYRDVAWYQQKPGKAPKLLIYSASNRYTGVPSRFSGSGSGTDFTFTISSLQPEDIATYYCQHDYSSPYTFGQGTKLEIK |
| 0.488 | 0.000496 | 1.02e+06 | 2.23 | hz18A10-VHm4 + hz18A10-VLm9 (antibody, V domains shown, Constant regions not restated for this antibody) VH: EVQLVQSGAEVKKPGASVKVSCKASGYTFTTYNIDWVRQAPGQGLEWMGTIYPGNGDTSYNQKFKGRVTMTRDTSTSTVYMELSSLRSEDTAVYYCARGDLYALDYWGQGTLVTVSS VL: DIQMTQSPSSLSASVGDRVTITCKASQSVYSDVAWYQQKPGKAPKLLIYSASNRYTGVPSRFSGSGSGTDFTFTISSLQPEDIATYYCQHDYSSPYTFGQGTKLEIK |
